Patent EP4473018A2 (dated 2024)

Legend:
[1] = molecular target: T1, Recombinant truncated human his-tag B7-H3 protein (amino acids 1-461 of SEQ ID NO:1 with a carboxy terminal … (human, UniProt Q5ZPR3 29-461)); experiment: SPR (Biacore T200), antibody captured by anti-human Fc, his-tagged B7-H3 as analyte from 100 nM, 1:1 model
T1 construct: also called his-tagged B7-H3 protein; recombinant human his-tagged B7-H3 protein
T1 sequence: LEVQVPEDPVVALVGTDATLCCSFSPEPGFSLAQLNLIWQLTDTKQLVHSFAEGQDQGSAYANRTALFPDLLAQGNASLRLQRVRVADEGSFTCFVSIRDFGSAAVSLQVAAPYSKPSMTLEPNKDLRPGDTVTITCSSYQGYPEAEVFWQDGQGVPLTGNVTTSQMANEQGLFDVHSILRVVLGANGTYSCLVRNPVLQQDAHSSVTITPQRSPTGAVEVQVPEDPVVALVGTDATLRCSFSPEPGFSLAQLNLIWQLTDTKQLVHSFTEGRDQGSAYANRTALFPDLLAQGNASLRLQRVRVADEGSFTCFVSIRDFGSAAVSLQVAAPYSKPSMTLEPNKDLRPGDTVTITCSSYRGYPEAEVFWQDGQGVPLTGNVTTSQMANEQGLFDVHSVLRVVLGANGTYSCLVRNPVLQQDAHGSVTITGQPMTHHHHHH

[2] = molecular target: T2, Human B7-H3 protein (UniProt Q5ZPR3-1) on cells (human, UniProt Q5ZPR3 29-534); experiment: flow cytometry on human osteosarcoma U2OS cells
T2 construct: This is endogenous B7-H3 on U2OS, SK-N-BE(2), A375, A549 and Panc-1 cells, on monocyte-derived dendritic cells and in patient tumour tissue; also called CD276; surface antigen expressed by human cancer cells
T2 sequence: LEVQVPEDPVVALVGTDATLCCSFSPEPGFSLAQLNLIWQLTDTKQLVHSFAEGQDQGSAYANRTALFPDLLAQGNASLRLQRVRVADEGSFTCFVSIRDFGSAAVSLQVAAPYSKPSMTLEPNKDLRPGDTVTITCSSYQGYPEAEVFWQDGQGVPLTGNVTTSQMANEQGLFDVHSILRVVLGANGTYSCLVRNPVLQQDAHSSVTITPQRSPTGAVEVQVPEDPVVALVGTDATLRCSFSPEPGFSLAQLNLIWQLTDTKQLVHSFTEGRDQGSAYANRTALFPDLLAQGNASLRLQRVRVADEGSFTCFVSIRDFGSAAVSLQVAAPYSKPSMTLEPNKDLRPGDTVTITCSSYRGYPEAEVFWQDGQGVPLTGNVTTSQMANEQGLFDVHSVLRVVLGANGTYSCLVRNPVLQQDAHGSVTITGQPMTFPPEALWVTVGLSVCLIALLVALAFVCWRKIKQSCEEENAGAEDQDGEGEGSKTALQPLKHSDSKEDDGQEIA

[3] = molecular target: T3, rat B7-H3 antigen protein (Sino Biologicals; Cat. No. 80380-R02H-20) (rat, UniProt Q7TPB4 29-248); experiment: ELISA, antigen coated at 50 ng/well
T3 construct: Bought protein
T3 sequence (looked up): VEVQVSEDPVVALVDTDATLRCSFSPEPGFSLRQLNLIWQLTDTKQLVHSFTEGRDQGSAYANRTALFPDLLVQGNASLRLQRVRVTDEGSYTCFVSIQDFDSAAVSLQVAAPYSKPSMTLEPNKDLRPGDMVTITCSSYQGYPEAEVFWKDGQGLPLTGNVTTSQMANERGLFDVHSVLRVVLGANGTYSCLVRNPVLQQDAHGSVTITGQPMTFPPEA

Measured: binding result

B1: Enoblituzumab (B7-H3 Macrogenics; MGA271; MG-B7-H3) (antibody, human IgG1, kappa, V domains shown)
VH: EVQLVESGGGLVQPGGSLRLSCAASGFTFSSFGMHWVRQAPGKGLEWVAYISSDSSAIYYADTVKGRFTISRDNAKNSLYLQMNSLRDEDTAVYYCGRGRENIYYGSRLDYWGQGTTVTVSS
VL: DIQLTQSPSFLSASVGDRVTITCKASQNVDTNVAWYQQKPGKAPKALIYSASYRYSGVPSRFSGSGSGTDFTLTISSLQPEDFATYYCQQYNNYPFTFGQGTKLEIKR
notes: also called B7-H3 MG; Macrogenics' B7-H3
binds: all assays above
